Measurements as given in article PMC6458161 (2019).

What was measured:
[1] = system: protamine (sulfate salt) (salmon); assay: ITC; details: ITC in Hepes buffer, 25 C (salt and pH not given in the material), short duplexes 10 uM (strand concentration), protamine 100 uM
[2] = system: GCDNA (DNA, duplex) GCGCGCGCGC; assay: ITC; details: Hepes buffer, 25 °C; 200 µM Net titrated into 10 µM DNA (strand concentration)
[3] = system: GCDNA (DNA, duplex) GCGCGCGCGC; assay: ITC, one set of sites fit; details: Na+ 100 mM (from the 10 mM Hepes/100 mM NaCl UV and gel buffer; the ITC buffer is only given as Hepes buffer), 25 °C, 500 µM EtBr titrated into 10 µM DNA (strand concentration)
[4] = system: ATDNA (DNA, duplex) GCAAATTTGC; assay: ITC, one set of sites fit; details: Na+ 100 mM (from the 10 mM Hepes/100 mM NaCl UV and gel buffer; the ITC buffer is only given as Hepes buffer), 25 °C, 200 µM EtBr titrated into 10 µM DNA (strand concentration)
[5] = 20 uM ethidium bromide (EtBr-bound DNA)

Which results are given for GCGCGCGCGC (double strand) [GCDNA]?
Ka [1, 5]: 4.5e+06 M⁻¹; Ka ([1]; 20 uM netropsin): 4.5e+07 M⁻¹; Ka ([1]; no drug): 3.4e+07 M⁻¹

CTDNA (calf thymus DNA) was tested. Which Ka ([1]; 60 uM ethidium bromide (EtBr-bound DNA)) did it give?
Its Ka is 6.36e+07 M⁻¹.

And the Ka ([1]; 60 uM netropsin (Net-bound DNA))?
The Ka was 5.54e+07 M⁻¹.

What about the Ka ([1]; no drug, CTDNA titrated into protamine) of the same compound?
Its Ka is 550000 M⁻¹.

What does the source list for GCAAATTTGC (double strand) [ATDNA]?
Ka [1, 5]: 3.9e+06 M⁻¹; Ka ([1]; 20 uM netropsin (Net-bound DNA)): 1.89e+08 M⁻¹; Ka ([1]; no drug): 1.4e+08 M⁻¹

For Cn1cc(NC(=O)c2cc(NC(=O)CN=C(N)N)cn2C)cc1C(=O)NCCC(=N)N, which binding [2] is on record?
Its binding is “no”.

What does the source list for CC[n+]1c(-c2ccccc2)c2cc(N)ccc2c2ccc(N)cc21?
KA [3]: 145000 M⁻¹; KA [4]: 165000 M⁻¹
